Measurements from the RNAGym collection of RNA variant scans (doi:10.1021/acssynbio.7b00057).

B1: Pistol ribozyme (parent)
chain: GGGUCGUUGUUCCAUAAUCGCGUGGAUAUGGCACGCAAGUUUCUACCGGGCACCGUAAAUGUCCGACUGGAGCCGUUCGGGCGGCUAUAAACAGACCUCAGGCCCGAAGCGUGGCGGCACCUGCCGCCGGUGGUAAAAAAGAUCGGAAGAGCACACGUCU

Variants of: B1
Test: aptazyme ON/OFF ratio, guanine; higher = stronger switching; co-transcriptional cleavage with and without guanine

| Variant | aptazyme ON/OFF ratio |
| --- | --- |
| GGGUCGGACGGUUAUAAUCGCGUGGAUAUGGCACGCAAGUUUCUACCGGGCACCGUAAAUGUCCGACUGGAGCCGUUCGGGCGGCUAUAAACAGACCUCAGGCCCGAAGCGUGGCGGCACCUGCCGCCGGUGGUAAAAAAGAUCGGAAGAGCACACGUCU [U7G U8A G9C U10G U11G C12U C13U] | 1.15 |
| GGGUCGGACGGCGAUAAUCGCGUGGAUAUGGCACGCAAGUUUCUACCGGGCACCGUAAAUGUCCGACUGGAGCCGUUCGGGCGGCUAUAAACAGACCUCAGGCCCGAAGCGUGGCGGCACCUGCCGCCGGUGGUAAAAAAGAUCGGAAGAGCACACGUCU [U7G U8A G9C U10G U11G C13G] | 1.1 |
| GGGUCGGACGGCUAUAAUCGCGUGGAUAUGGCACGCAAGUUUCUACCGGGCACCGUAAAUGUCCGACUGGAGCCGUUCGGGCGGCUAUAAACAGACCUCAGGCCCGAAGCGUGGCGGCACCUGCCGCCGGUGGUAAAAAAGAUCGGAAGAGCACACGUCU [U7G U8A G9C U10G U11G C13U] | 1.27 |
| GGGUCGGACGGCAAUAAUCGCGUGGAUAUGGCACGCAAGUUUCUACCGGGCACCGUAAAUGUCCGACUGGAGCCGUUCGGGCGGCUAUAAACAGACCUCAGGCCCGAAGCGUGGCGGCACCUGCCGCCGGUGGUAAAAAAGAUCGGAAGAGCACACGUCU [U7G U8A G9C U10G U11G C13A] | 1.19 |
| GGGUCGGACGGGAAUAAUCGCGUGGAUAUGGCACGCAAGUUUCUACCGGGCACCGUAAAUGUCCGACUGGAGCCGUUCGGGCGGCUAUAAACAGACCUCAGGCCCGAAGCGUGGCGGCACCUGCCGCCGGUGGUAAAAAAGAUCGGAAGAGCACACGUCU [U7G U8A G9C U10G U11G C12G C13A] | 1.05 |
| GGGUCGGACGGGUAUAAUCGCGUGGAUAUGGCACGCAAGUUUCUACCGGGCACCGUAAAUGUCCGACUGGAGCCGUUCGGGCGGCUAUAAACAGACCUCAGGCCCGAAGCGUGGCGGCACCUGCCGCCGGUGGUAAAAAAGAUCGGAAGAGCACACGUCU [U7G U8A G9C U10G U11G C12G C13U] | 1.01 |
| GGGUCGGACGGGGAUAAUCGCGUGGAUAUGGCACGCAAGUUUCUACCGGGCACCGUAAAUGUCCGACUGGAGCCGUUCGGGCGGCUAUAAACAGACCUCAGGCCCGAAGCGUGGCGGCACCUGCCGCCGGUGGUAAAAAAGAUCGGAAGAGCACACGUCU [U7G U8A G9C U10G U11G C12G C13G] | 1.05 |
| GGGUCGGACGCAUAUAAUCGCGUGGAUAUGGCACGCAAGUUUCUACCGGGCACCGUAAAUGUCCGACUGGAGCCGUUCGGGCGGCUAUAAACAGACCUCAGGCCCGAAGCGUGGCGGCACCUGCCGCCGGUGGUAAAAAAGAUCGGAAGAGCACACGUCU [U7G U8A G9C U10G U11C C12A C13U] | 1.05 |
| GGGUCGGACGCAAAUAAUCGCGUGGAUAUGGCACGCAAGUUUCUACCGGGCACCGUAAAUGUCCGACUGGAGCCGUUCGGGCGGCUAUAAACAGACCUCAGGCCCGAAGCGUGGCGGCACCUGCCGCCGGUGGUAAAAAAGAUCGGAAGAGCACACGUCU [U7G U8A G9C U10G U11C C12A C13A] | 1.07 |
| GGGUCGGACGCAGAUAAUCGCGUGGAUAUGGCACGCAAGUUUCUACCGGGCACCGUAAAUGUCCGACUGGAGCCGUUCGGGCGGCUAUAAACAGACCUCAGGCCCGAAGCGUGGCGGCACCUGCCGCCGGUGGUAAAAAAGAUCGGAAGAGCACACGUCU [U7G U8A G9C U10G U11C C12A C13G] | 1.02 |
| GGGUCGGACGACUAUAAUCGCGUGGAUAUGGCACGCAAGUUUCUACCGGGCACCGUAAAUGUCCGACUGGAGCCGUUCGGGCGGCUAUAAACAGACCUCAGGCCCGAAGCGUGGCGGCACCUGCCGCCGGUGGUAAAAAAGAUCGGAAGAGCACACGUCU [U7G U8A G9C U10G U11A C13U] | 1.03 |
| GGGUCGGACGACGAUAAUCGCGUGGAUAUGGCACGCAAGUUUCUACCGGGCACCGUAAAUGUCCGACUGGAGCCGUUCGGGCGGCUAUAAACAGACCUCAGGCCCGAAGCGUGGCGGCACCUGCCGCCGGUGGUAAAAAAGAUCGGAAGAGCACACGUCU [U7G U8A G9C U10G U11A C13G] | 1.02 |
| GGGUCGGACGCCGAUAAUCGCGUGGAUAUGGCACGCAAGUUUCUACCGGGCACCGUAAAUGUCCGACUGGAGCCGUUCGGGCGGCUAUAAACAGACCUCAGGCCCGAAGCGUGGCGGCACCUGCCGCCGGUGGUAAAAAAGAUCGGAAGAGCACACGUCU [U7G U8A G9C U10G U11C C13G] | 1.06 |
| GGGUCGGACGCCUAUAAUCGCGUGGAUAUGGCACGCAAGUUUCUACCGGGCACCGUAAAUGUCCGACUGGAGCCGUUCGGGCGGCUAUAAACAGACCUCAGGCCCGAAGCGUGGCGGCACCUGCCGCCGGUGGUAAAAAAGAUCGGAAGAGCACACGUCU [U7G U8A G9C U10G U11C C13U] | 1.02 |
| GGGUCGGACGCCAAUAAUCGCGUGGAUAUGGCACGCAAGUUUCUACCGGGCACCGUAAAUGUCCGACUGGAGCCGUUCGGGCGGCUAUAAACAGACCUCAGGCCCGAAGCGUGGCGGCACCUGCCGCCGGUGGUAAAAAAGAUCGGAAGAGCACACGUCU [U7G U8A G9C U10G U11C C13A] | 1.03 |
| GGGUCGGACGCGCAUAAUCGCGUGGAUAUGGCACGCAAGUUUCUACCGGGCACCGUAAAUGUCCGACUGGAGCCGUUCGGGCGGCUAUAAACAGACCUCAGGCCCGAAGCGUGGCGGCACCUGCCGCCGGUGGUAAAAAAGAUCGGAAGAGCACACGUCU [U7G U8A G9C U10G U11C C12G] | 1.04 |
| GGGUCGGACGCUCAUAAUCGCGUGGAUAUGGCACGCAAGUUUCUACCGGGCACCGUAAAUGUCCGACUGGAGCCGUUCGGGCGGCUAUAAACAGACCUCAGGCCCGAAGCGUGGCGGCACCUGCCGCCGGUGGUAAAAAAGAUCGGAAGAGCACACGUCU [U7G U8A G9C U10G U11C C12U] | 1.05 |
| GGGUCGGACGCACAUAAUCGCGUGGAUAUGGCACGCAAGUUUCUACCGGGCACCGUAAAUGUCCGACUGGAGCCGUUCGGGCGGCUAUAAACAGACCUCAGGCCCGAAGCGUGGCGGCACCUGCCGCCGGUGGUAAAAAAGAUCGGAAGAGCACACGUCU [U7G U8A G9C U10G U11C C12A] | 1.04 |
